The record followed here is US20210332350A1.

Holding throughout (experiment): cell-based or functional assay
Assay [1] deals with Corynebacterium glutamicum SSB (Corynebacterium glutamicum).
Assay [2] has as its target Lactobacillus reuteri SSB (Lactobacillus reuteri).
Assay [3] deals with E. coli single-strand DNA-binding protein (SSB) (Escherichia coli) (UniProt P0AGE0).
UniProt P0AGE0, sequence (P0AGE0 2-178 limits assumed): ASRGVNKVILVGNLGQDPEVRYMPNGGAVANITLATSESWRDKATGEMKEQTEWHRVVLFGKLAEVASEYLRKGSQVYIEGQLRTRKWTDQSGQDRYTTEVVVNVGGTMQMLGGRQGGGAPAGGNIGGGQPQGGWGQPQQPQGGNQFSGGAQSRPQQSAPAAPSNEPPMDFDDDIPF

Turning to Corynebacterium glutamicum recT, in assay [1], the Allele Recombination (AR) Frequency in E. coli, bi-cistronic co-expression was 0.245 and the increase of AR frequency over the SSAP alone came out at 10 fold. The Allele Recombination (AR) Frequency in E. coli, bi-cistronic co-expression in assay [2] amounted to 0.044.

As for Lactobacillus reuteri recT1, the Allele Recombination (AR) Frequency in E. coli, bi-cistronic co-expression in assay [1] was found to be 0.000496. Also, in assay [2], the Allele Recombination (AR) Frequency in E. coli, bi-cistronic co-expression was 0.003 and the increase of recombination frequency over the SSAP alone turned out to be 10 fold.

As to “λ β expressed from pARC8 in E. coli (no tag stated) (from UniProt P03698 1-261)”, in assay [3], the Allele Recombination (AR) Frequency in E. coli, bi-cistronic co-expression was determined as 0.09.
